Bridge positions count the residues as written; N and C are the ends. Ends that are not written are not given here.
Target: TAB-XC154 자가면역항체
Experiment: competition: XC154 antibody (100 ng) pre-incubated with 10^11 or 10^12 XC154p1 phage, then flow cytometry on HepG2 or LnCap-LN3 cells

CLPSWFHRC (disulfide 1-9 (inferred); also: displayed on phage) [XC154p1 에피토프 발현 파아지 (…)]
percent inhibition: > 90%

From patent KR20120134547A
